# The RNAGym collection of RNA variant scans (doi:10.1073/pnas.2313332121)
# This sample holds only a part of the variants without activity.
# B1: TPR 5TU (parent)
# chain: GGAUCUUCUCGAUCUAACAAAAAAGACAAAUCUGCCACAAAGCUUGAGAGCAUCUUCGGAUGCAGAGGCGGCAGCCUUCGGUGGCGCGAUAGCGCCAACGUUCUCAACUAUGACACGCAAAACGCGUGCUCCGUUGAAUGGAGUUUAUCAUG
# Variants of: B1
# Experiment: polymerase ribozyme fitness, log enrichment relative to wild type (log ratio); higher = more active; in vitro selection for triplet polymerase activity
# Method in brief: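 Fitness measures genotype enrichment against wild-type enrichment on a logarithmic scale, with inverse-variance-weighted averaging of replicates. The logarithm is base 2, and genotypes were kept only with ≥10 input reads and ≥1 read per output in Illumina sequencing. The sequenced libraries came from one triplicate in vitro selection round, including frozen incubation at −7 °C, of PCR-built, transcribed mutant libraries of each subunit of a heterodimeric triplet polymerase ribozyme.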
row,Variant,polymerase ribozyme fitness (log ratio)
1,C95A C96G,-2.25
2,A89U A115G,-1.6
3,G94C G140A,-3.95
4,G92C C114U G141U,≤ -4.2
5,A91G C96U,-3.04
6,C87U U102G A138C,≤ -4.2
7,G94A A97G G124A,-1.65
8,A91U G141C,-4.05
9,A91U G141U,≤ -4.2
10,C87U A110U A120C U135A G136A,≤ -4.2
11,C87U C116U,-0.851
12,C87U U104A,-0.828
13,C93G U146G C149U,-3.51
14,C87U C125G,-1.53
15,C87U C125U,-2.13
16,C93A C125G,-2.62
17,A91U U148C,-4.1
18,G86U A98C U101C,-0.908
19,G86U G152U,≤ -4.2
20,A91G A106G A150U,-0.616
21,C93U G126A U139C,-4.1
22,G86U A89G G92A,≤ -4.2
23,C93A C99A,≤ -4.2
24,C87A C93G,≤ -4.2

row,Variant,polymerase ribozyme fitness (log ratio)
1,G88A A150C,≤ -4.2
2,C93G C105A U135A,≤ -4.2
3,A91C U102A C132U,-3.54
4,G92C U127G,-3.67
5,C93U C103G,-3.63
6,C93U C103U,-1.61
7,A91G A147U,-1.52
8,A91G C105U,-1.66
9,G94U A142G,-3.45
10,C93A G140U,-3.85
11,G86C A97U A98U,-3.05
12,G86U U144A,-3.12
13,C87A U90G C99G,≤ -4.2
14,C93U A119U U127G,-2.59
15,G94C C132U,-1.26
16,G92U C99G,-1.57
17,C87U U134C,-0.522
18,G94A C105G,-1.68
19,A91U A121U U144A,≤ -4.2
20,C95U C96U,-1.18
21,C95U C96G,-0.577
22,C87U C96U U104C A107U G141U,≤ -4.2
23,C87U A120C G152U,-3.33
24,G92A C95A,-3.27

row,Variant,polymerase ribozyme fitness (log ratio)
1,C87U G88C,-3.83
2,C93G A98G,-2.91
3,C87A A97G,≤ -4.2
4,U90A C95A,≤ -4.2
5,G94C C96U A113U A115U U130C A137G,≤ -4.2
6,C87U U148G,-3.83
7,C93A A98U,-0.828
8,G86A U148A,-3.4
9,C87A C95A,≤ -4.2
10,G92U C95U A147G U148A,-3.45
11,C93U G124A C131U U139G,0.429
12,C87G C132U,≤ -4.2
13,C95U C116G,0.0419
14,G92U A122U G141C,-0.707
15,A89C U127A,-4.16
16,G88U C108A G128C C132U A137U,≤ -4.2
17,C87U G136U,-2.59
18,C93G A98C A120U,-3.94
19,C87G G94C A98G,-3.08
20,G92A C103A,-3.9
21,G92A C103G,-4
22,C95U C131A C132U,-3.79
23,A89C C131A,-3.23
24,A91C U104A,≤ -4.2

row,Variant,polymerase ribozyme fitness (log ratio)
1,C93G G143U,-4.04
2,G94A G124A U146A,-1.09
3,C93A G128C C132G A138G U148G,≤ -4.2
4,U90A A106C G128A,≤ -4.2
5,C87U A142U,-0.783
6,C93G,-3.35
7,C93A,-2.17
8,C93U,-1.34
9,C93A U151A,≤ -4.2
10,C95U C116G A138G,-3.58
11,G86A U111C,-3.31
12,G92C C95U,-0.22
13,C93U G124U,-2.66
14,C93U G124A,-1.3
15,G92A C114U,-3.92
16,C93G A121C,-3.39
17,G94A G140A,-3.51
18,A89U G92U A121C G140U,-3.5
19,G92U A138U,-4.2
20,G92U C125A,-1.82
21,A89C U101C U146A,0.0757
22,A89C C93U U135A,-3.55
23,C93U A120G,-0.649
24,G92U A147U,0.301

row,Variant,polymerase ribozyme fitness (log ratio)
1,C87G G88C G136A,≤ -4.2
2,C96A U102A G143C,-4.16
3,A91U U111G U151G,≤ -4.2
4,C95U C132G A150U,-3.31
5,C87U U102G,-3.08
6,C93U G126A,-0.311
7,G92U C105G C125U A137G,-3.35
8,A89U U144C,0.497
9,G94A G143C,-2.41
10,C93U C105G,-3.36
11,G94C C103U,-0.0253
12,C93G A119G,-3.48
13,C93U A121U U127C,-2.87
14,G94A C116U A122U,-0.787
15,C87G G100C,-3.97
16,G86U C149U,-2.48
17,C87G C93U G124C,≤ -4.2
18,A91G A115C,-3.57
19,G94C C99U,-0.0105
20,A91U C125A,-3.87
21,G94A G136A,-0.0776
22,G94A G136U,-2.56
23,A91G C125A,-3.21
24,G88A C118U G141U U144A,≤ -4.2

row,Variant,polymerase ribozyme fitness (log ratio)
1,G88U C93A,-3.73
2,G86U A107G C116A G136U A138C,≤ -4.2
3,C87A U145A,-4.17
4,G94C U127A,-3.75
5,G94C U101A C105G G141C,≤ -4.2
6,G88U C96G A106U G143A,≤ -4.2
7,G92U G136A,0.353
8,A91U G140C,≤ -4.2
9,G94C C131U U135G G152A,-3.32
10,A91U G94U C96G A115G G141C,≤ -4.2
11,C87U A113U C116U,-1.99
12,G88A G94U U146C,-4.14
13,A91U A97G A122U A147U,≤ -4.2
14,A89G C108U,-3.7
15,G94C A138G G141A G143A,≤ -4.2
16,C87U A150G,-1.2
17,C93A A115G C116U,-2.39
18,C96A C103A U135A U145A,-1.96
19,C87A A91C,≤ -4.2
20,G88C C131G U151G,≤ -4.2
21,G92A C103G C129G U134A,≤ -4.2
22,C95U U101C,-0.173
23,C87G A122U C129U U134C,≤ -4.2
24,C93A G141U,-0.625

row,Variant,polymerase ribozyme fitness (log ratio)
1,G94C G143A,-1.86
2,C95A U144G,0.303
3,G92A C96A,-3.11
4,A89C G92U C96A A106G A107U U139A,≤ -4.2
5,G94A C118A,-0.879
6,G94A C118G,-1.61
7,C93A G133C,-4.09
8,A89G C95A A137C,-4.09
9,C93U A121U,-0.267
10,C93G A138G,≤ -4.2
11,C93A U127G,-4.05
12,C93U A122G C129U U146G,-3.83
13,G92C C114U U151G,-4.12
14,G92U C116G C132G,-3.8
15,G94C C103U A119C C125A,-2
16,C87A A119G A137G,≤ -4.2
17,A89C C93U C116U G128A,≤ -4.2
18,C93G G140A,≤ -4.2
19,A91G C96U U101C U144G,-2.18
20,C87G C93G,-3.76
21,C96A G124U C149G,-3.82
22,C87U C149A,-3.78
23,U90C U145G,≤ -4.2
